Drawing on publication PMC2911020, this text covers Kd for 4 substances.

Assay [1] deals with PapDG chaperone-adhesin complex (His-tagged PapD, class II PapG), purified and coumarin-labeled (Escherichia coli) (UniProt P15319). Nature of the assay: other fluorescence titration.
Assay [2] has as its target PapC usher (Escherichia coli) (UniProt P07110). The note with it: cited from earlier work.

For orientation: Kd means the constant that tells how readily two partners part at equilibrium. Consider “PapC F21A, purified, His-tag cleaved off (pQY21) (from UniProt P07110 25-836) (natural protein)”, for which the Kd in assay [1] turned out to be 62 nM.
In assay [1], “PapC R652A, purified, His-tag cleaved off (pQY652) (natural protein)” had a Kd of 1590 nM.
On the same count and under the same terms, then “PapC usher, wild type, purified, His-tag cleaved off (pDG2) (from UniProt P07110 25-836) (natural protein)”, with 59 nM.
On to “PapDG chaperone-subunit complex (from UniProt P15319)”, for which the Kd in assay [2] is 90 nM.
